Ends that are not written are not given here.
Target: recombinant soluble empty (peptide free) HLA-DR1 (human)
Assay: fluorescence polarisation
Details: both partners purified

B1: FAM-CLIP peptide (residues 87-101) (peptide)
peptide: {FAM}-PVSKMRMATPLLMQA
Q: For B1, which t1/2 is on record?
A: ~1.33 h

Source: paper PMC2580030 (PLoS ONE, 2008)
